Patent publication US5702914, “Use of reporter genes for retinoid receptor screening assays having novel retinoid-associated response elements” (The Salk Institute for Biological Studies)

B1: HOXB1 DR-2B (dsDNA)
DNA 1: CGGGCCTGACCTTTTTACCTCGAAG
DNA 2: CTTCGAGGTAAAAAGGTCAGGCCCG
B2: HOXB1 DR-2A (dsDNA)
DNA 1: TGAACTCTTGCCCT
DNA 2: AGGGCAAGAGTTCA

How the values were obtained:
[1] = molecular target: T1, RAR alpha:RXR alpha heterodimer (Homo sapiens, UniProt P10276;P19793 P10276:1-462,P19793:1-462); test: EMSA; less intense than on DR-5; 74-fold RA induction of TK.Luc(DR2B)2 with both receptors in NT2/D1 cells; details: tags: rabbit reticulocyte lysate (Promega); from pCMX-hRARalpha and pCMX-hRXRalpha; label: 32P
Description: (§1) Aliquots of mRNA were incubated with rabbit reticulocyte lysate (Promega) for in vitro translation. For gel retardation assay, 5 µl of in vitro translated proteins were preincubated in binding buffer (10 mM Tris[pH8.0], 40 mM KCl, 0.05% Nonidet P-40, 6% glycerol, 1 mM DTT, 5 µg/ml poly[dI.dC]) on ice for 15 minutes. For competition assays, 20 fold molar excess of competitor oligonucleotides was mixed at this step. Oligonucleotides containing DR-5 (RARβ2RARE), HOXB DR-2A (nucleotides 30–43 of SEQ ID NO:1) and HOXB DR-2B (nucleotides 41–54 of SEQ ID NO:2) were used as competitors and probes. Subsequently, ^32P-labelled oligonucleotide probes were added to the reaction mixtures and incubated on ice for 15 minutes. The same oligonucleotides used for the construction of luciferase plasmids were used. Reaction mixtures were resolved by 5% polyacrylamide gel electrophoresis in 0.5×TBE. The dried gels were autoradiographed at −70° C.
The ability of RAR and RXR to form either homo- or heterodimers on the HOXB1 DR-2A and DR-2B response elements was examined using gel retardation assays. The expression plasmids pCMX-hRARα and pCMX-hRXRα were linearized with NheI restriction enzyme. Subsequently, capped mRNA was synthesized in vitro using T7 RNA polymerase (Stratagene) according to the manufacturer's instructions. […]

[2] = molecular target: T1, RAR alpha:RXR alpha heterodimer; test: EMSA; less intense than on DR-5; details: tags: rabbit reticulocyte lysate (Promega); from pCMX-hRARalpha and pCMX-hRXRalpha; label: 32P
Description: as §1, with “Gel retardation assays were carried out according to Kliewer et al. (1992, supra). The plasmids pCMX-hRARα and pCMX-hRXRα (Kliewer et al., 1992, supra) were linearlized and capped mRNA was synthesized in vitro using T7 RNA polymerase (Stratagene) according to manufacturer's instructions. Aliquots” for “Aliquots”
The ability of RAR and RXR to form either homo- or heterodimers on the HOXB1 DR-2A and DR-2B response elements was examined using gel retardation assays. […]

T1 sequence (P10276 whole entry, chain 1 of 2): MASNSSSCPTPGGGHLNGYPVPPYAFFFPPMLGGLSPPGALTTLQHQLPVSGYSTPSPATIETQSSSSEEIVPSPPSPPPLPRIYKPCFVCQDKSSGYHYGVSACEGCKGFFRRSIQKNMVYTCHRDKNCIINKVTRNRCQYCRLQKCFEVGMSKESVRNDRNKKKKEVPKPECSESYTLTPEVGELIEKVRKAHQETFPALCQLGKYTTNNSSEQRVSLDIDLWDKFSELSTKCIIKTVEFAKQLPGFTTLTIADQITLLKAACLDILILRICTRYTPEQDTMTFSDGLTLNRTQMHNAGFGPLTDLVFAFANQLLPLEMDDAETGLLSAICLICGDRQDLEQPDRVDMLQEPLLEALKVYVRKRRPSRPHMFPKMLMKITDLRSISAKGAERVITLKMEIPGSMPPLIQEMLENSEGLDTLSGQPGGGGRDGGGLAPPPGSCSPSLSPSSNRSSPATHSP
T1 sequence (P19793 whole entry, chain 2 of 2): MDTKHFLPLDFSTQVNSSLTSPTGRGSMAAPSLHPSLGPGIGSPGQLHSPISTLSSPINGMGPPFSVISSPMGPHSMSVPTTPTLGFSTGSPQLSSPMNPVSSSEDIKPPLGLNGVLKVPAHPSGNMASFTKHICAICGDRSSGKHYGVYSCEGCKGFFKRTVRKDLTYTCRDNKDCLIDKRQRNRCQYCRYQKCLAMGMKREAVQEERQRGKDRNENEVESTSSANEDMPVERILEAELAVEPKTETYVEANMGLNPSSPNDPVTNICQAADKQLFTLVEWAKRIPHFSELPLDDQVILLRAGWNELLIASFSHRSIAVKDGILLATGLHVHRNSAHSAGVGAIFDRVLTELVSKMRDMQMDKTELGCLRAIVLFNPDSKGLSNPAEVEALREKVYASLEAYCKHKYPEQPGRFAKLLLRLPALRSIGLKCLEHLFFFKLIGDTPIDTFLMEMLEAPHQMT

| Binder | binding result [1] | binding result [2] |
| --- | --- | --- |
| B1 | binds | – |
| B2 | – | binds |
